One may read the stoichiometry N as the number of molecules, sites or subunits per partner or assembly.

The target of assay [1] is C108 SOSIP.664 trimer (HIV-1 (isolate C108.c03)). The assay is described as follows: negative-stain EM; PGT145-purified SOSIPs; class averages.
Assay [2] has the same target. The assay is described as follows: SEC; PGT145-affinity-purified SOSIPs on a Superdex 200 10-300 GL column in PBS.
Assay [3] addresses CRF250 SOSIP.664 trimer (HIV-1 (isolate CRF-T250-4)). The assay is described as follows: negative-stain EM; PGT145-purified SOSIPs; class averages.
Assay [4] shares this target. The assay is described as follows: SEC; PGT145-affinity-purified SOSIPs on a Superdex 200 10-300 GL column in PBS. On the technique in general: In gel filtration, larger molecules generally elute earlier.
The target in assay [5] is MGRM8 SOSIP.664 trimer (HIV-1 (isolate MGRM_AG_002_8)). The assay is described as follows: negative-stain EM; PGT145-purified SOSIPs; class averages.
Assay [6] shares this target. The assay is described as follows: SEC; PGT145-affinity-purified SOSIPs on a Superdex 200 10-300 GL column in PBS.
The target in assay [7] is WITO SOSIP.664 trimer (HIV-1 (isolate WITO4160.33)). The assay is described as follows: negative-stain EM; PGT145-purified SOSIPs; class averages.
The target is the same in assay [8]. The assay is described as follows: SEC; PGT145-affinity-purified SOSIPs on a Superdex 200 10-300 GL column in PBS.

C108 SOSIP.664 trimer (complex): the stoichiometry N in assay [1] and in assay [2] was 3 throughout.

On to CRF250 SOSIP.664 trimer (complex), for which the stoichiometry N in assay [3] and in assay [4] was 3 each time.

As for MGRM8 SOSIP.664 trimer (complex), the stoichiometry N in assay [5] and in assay [6] was 3 throughout.

In the case of WITO SOSIP.664 trimer (complex), the stoichiometry N in assay [7] and in assay [8] was 3 in each case.

The record behind these values is PMC5640805.
